Consider 74 sequences from the supplement of paper PMC12636428.

This data set concerns Saccharomyces cerevisiae. Put plainly: transcriptional activation domain activity (GFP:mCherry ratio, weighted mean of sorted bins, harmonized to initial dataset scale) (arbitrary fluorescence ratio units); higher = stronger transcriptional activation. The conditions noted are these: beta-estradiol 1 µM; induction time 4 h. The procedure, abridged: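 Barcoded tiles were sequenced after cells were sorted into 8 bins by GFP:mCherry ratio. Before sorting, cultures had been diluted 1:5 into SC with 1 uM beta-estradiol and held for 4 hours at 30 °C. The tiles were fused to an estradiol-inducible synthetic transcription factor and integrated at URA3 in yeast diploids carrying a GFP reporter. Activation activity is the read-weighted mean of bin median fluorescence, averaged over barcodes and linearly mapped onto the initial dataset scale, and tiles under 50 reads were left out.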

Consider “GDKEKRKTSRRSRSPSRGRHQRRGGGGGEESRPRSESPRRRRRRLDSSARRDD”, for which the “transcriptional activation domain activity” value was 44400.
Under “GDKNKRKRGDSAASEAQAGQQEAAKEVQQKKKRVRSKGKAAAPPVAQASAGAS” stands 45300; under “GDKTEGAEGEDGAQRRQSTRGRGRSGRGRGGRGRGGRADENKDEENHEDAGES”, 22500.
As for “GDLGFRDSIVTKVLQDARSNFLVSVSRLLRPIFVLMKKWVRLAVERLNICHSR”, the figure is 33300; as for “GDQGAGRRDRRRRLGHRGGGEGRGREEGEEGRRDGEGRHRGEGGREEGEEEDR”, 14300; as for “GDSTNGNNSPVEDEANLRRKAKKRREKEREREEKKRVGRREKAKKTNGGEKQG”, 27000.
As for “GDVAATDIGSKGGKKDGKRQKGSAAHVDGEDTSEDKKGAAKTGKRKKGGGAKE”, the figure is 27200; as for “GEAGAEGEAAAAEGEGAAEEGASGEGAEGEEAAAEEGEGAEEEGGEDLQALAT”, less than 6570.
In the case of “GEAGAEQGEHGARRARTRGAGCVRGRGREVGEGAGARRRVCGRRCEREARAHN”, the “transcriptional activation domain activity” value was determined as 23400.
As for “GEAGEAGEAGAEGTATEEREEEEEQQQKKEERKRKRKRKQQQGSGKVTVAAAK”, the figure is 45000; as for “GEAQARANADAQADAGEVPEKGKKKRRHKEGGGDGEGKKKKRKEKQTEPEEGA”, 24700.
As for “GEASAEKTKKRSRASKGGEDGKKKKSKEARVESNGANGHAGGDAAAAAAAEQQ”, the figure is 30400; as for “GEDEEEGEEEEEEDDDDEEEKDHDEDEGDQGDGASDDADAAAQERPGKPRPGR”, 8020; as for “GEDSTRSAKKPTNKRKKASTAGDEGRETKARKTAKGRAGTRVRKGRGAKTSSS”, 20500.
Under “GEDTAQEGGEEGATSADEEETASTTRSGRKPKKIKTAVPIKRKRRSGRGGIAA” stands 31200; under “GEEARDRGHRSGSGRHRSRDRERRRRRDRDDDRHTSSRHSRRERSPEEDSSRR”, 36700; under “GEEDAEEEAKPKKGGKRKAEPVKEEDDEPEEAPAKPKRGRKSAKEQVKEEIKE”, 42700.
With “GEEGDKPKRGRKRKEAPKDDGEDADDAEAPAAKKAKPASKPASKAAATKPASK”, the “transcriptional activation domain activity” value stood at 34200.
Under “GEEGEMSLTKDDLVELLEQDDNGWCRRSAPPARNRPVPAKPAATTNTVRASPV” stands less than 6570; under “GEEGKAEEAAGEEGKAEAEAGAESEKSAEGEGEASAEEGASGEEAAGEKAAGE”, 26800.
Take “GEEKPKPVRRQRQPKDPNAPPPQRKKRKTAAEKAAEAAAAASTPTPAPAPAPA”: the “transcriptional activation domain activity” value amounted to 13600.
For the sequence “GEEVSAPLPKPKGKGGRPRKHPRPEPVASEYEVDGEPTPKRARRAIKSKRGRR”, the “transcriptional activation domain activity” value is 23500.
Under “GEGAGGRDSTKTGAKAAGTGSTASKQPSNSASGGGQGKKKQPSATSAAGRKIA” stands 59000.
Under “GEGEAKTKKRNKRSKAPVEGEAAETPAAATTEGEEAAAPAAPKKEKKPRKPRA” stands 8960; under “GEGEEDDVNGNKKRASDRSSSPKSKRSRKDEEEKEKEKKPTVKKPRQTKPKTT”, 31300.
As for “GEGEGEVEAEVPTAAANEPVLEVQPKEPEPEAPAQPQQQPAAVKTTRPAPVSH”, the figure is 28800; as for “GEGERGSDGRQKEGARERGRRRETRKQNQKRGRGGRGGRGRGEGGAKSETQET”, 17200.
“GEGESADERRRRRHKRKRDGSDEEDEEERGRKRSRRSKGSDDDRSGDDDEDDE”: the “transcriptional activation domain activity” value amounted to 25600.
On to “GEGKRGGVGKKGKGKTKGKEGSIGKSNAKKGASETPKKEKEKARGAEASDKGS”, for which the “transcriptional activation domain activity” value was 45600.
Under “GEGRAGGGRGGRKDSRDDRRGNRNSSNERDRSRNRRNSNGNNRSKKNDSDRGR” stands 24400; under “GEGSAEDGGGSSEPRRLRRSHEACSRCRGKKIKCDSKHPRCTACATANTQCTQ”, 25100.
Under “GEIAQLWDFNVDQFNMTPSNSSGSATISAPNSFTSDIPQYNHGSLGNSVSKSS” stands 48300; under “GEIVQIDLPLYGKSGQNRGKAALEYSDSLSAQKAASHMTGGQIDGAVVKVELS”, 66000; under “GEKAEGANGEGSGAEGSRRRPSGRGRGRGRGRGGRGGRGGRATNEAGDEKKEG”, 22500.
Under “GEKATEAANGEGSGTEGSRRRASGRGRGRGRGRNGRGGARGGRAGDAEEKKEG” stands 9280; under “GEKEASGENTSNGTTATTVKPSSSSDEEKAAKKENKEAATTTNNGIKNSATAS”, 30300.
In the case of “GEKGRKGGAEEGERRREEGGGRRRDEGERRGEGGAGSREGTGRAGEQGERGSR”, the “transcriptional activation domain activity” value was 19200.
Under “GEKRKRGGEGKGEDDDDDDDDDRGQEGDGKRGSEDTGGGSKKGRRRRKRGKGH” stands 22600; under “GELLYIILSIVDVDLICRFTIIHPIPTFDNLTALNMVIDRMQEVGLYLVYDMR”, 52300.
Take “GELQFCYITGMVLGNLACMEQWGNIVRVIFRAFRLALDSPVFFRKVIQAIHTQ”: the “transcriptional activation domain activity” value amounted to 80700.
For the sequence “GELRLPELQAIGISGGMSLLQDAVFMDGRPEASPLFKIIHLLKRASHWKLGRS”, the “transcriptional activation domain activity” value was determined as 46300.
Under “GELYIYRLISSGLIFDTLWSLVTFGHPKGHPLPQYPCTVDMPDDFFRVRLVCV” stands 65900.
Under “GERDIDVSSIEDVVKRECKKRVENEKLAQVGYAYDLAHSKAAAHLEAVKKLRK” stands 32900.
As for “GERGRGGEEERRGRGRGRGREEREREKERRERERRRRREEEEERGEEERRGRR”, the figure is 29400; as for “GESDDEGGGGRKRKKAKVEPAPKVKVERKPAAPVQEGEKKKRGRPRKVAPLPA”, 24400.
Turning to “GESKEERRSKKDKKRKREAEGVPAEEEASEVQDKKKKKSKNASAMEVDSATPT”, the “transcriptional activation domain activity” value is 30900.
As for “GESNASLTKTLDSVLRNCFPQRSRMVLPVELPLDVFVCIVHFLLVRQFEYGQE”, the figure is 49700.
Under “GESSSKPPKKRGRPRKNPLPPAEPSGADEGETSAPAAEPNPPKRKRGRPRKDS” stands 34600; under “GETVFYKGQGKKRQEIRAPLRRGMALLHRHGHECLLHEGTQVLKGIKYVLRSD”, 54600; under “GEVSEAEANGATTQAEDGATPAEGADKKKKKKKARKSKKAADAAAGGAEKPAE”, 17900.
Under “GEVTEAEANGEAPKPEGEAAAEASPKPRKKKSPRKKKAAAPAEGEAAATEATA” stands 19600; under “GEVTQKTRKGSTKHAQRATSGKASEKRRELSRKRKGRRKENARADDGTGEEEE”, 17400.
Turning to “GFAKDTQDEEYVQHHDNVNPTIPPPDNYILNNENDDGLDNLLGMDYYNIDDLL”, the “transcriptional activation domain activity” value is 101000.
“GFCMASKTLALVLRHLRRYRWCLVARIRRKATEISTRFCALGGILIIYIRNVS”: the “transcriptional activation domain activity” value was determined as 73500.
Regarding “GFFFAIACLFICQGWMLGGDQSIKSISLGGGFLCLFFFSLFSFLFASWCVWLC”, the “transcriptional activation domain activity” value came out at 38700.
Under “GFHHLLPVFQMLLFKLDHRLYMNIGDVAKFLNITTINVLLLQLTDLHSLINIP” stands 54900.
Regarding “GFLLLLLLLFVFSLVVVHGIVSVSVFYQFFRPYCRFFLFYPYWFIYFLFCLLA”, the “transcriptional activation domain activity” value was found to be 58500.
As to “GFLLSYSLIRLSLTSHLLFGVFLLIQDIMLVLFSLYPTYPILLFSFLIFIGSF”, the “transcriptional activation domain activity” value turned out to be 35500.
For “GFMLIFWNLAGVPLSYCHCSIFVANHLDTITSWGGDFRLPLLVLLFTSYLFMY”, the “transcriptional activation domain activity” value came out at 42000.
As for “GFRFAVAVIDNIQTMKHETMGSYVTLIMNMHITQAVAVWFYSCIFTFKLGQAI”, the figure is 62500; as for “GFRNFVERLTFCLLEDRVRIAMMQPEQPRYLHSFVSSVMGLNWMVQRWLCLPR”, 47600; as for “GFSCHTRILGRPIIISTSTSYIGILLDLVRTFYFLYLLLRILLKVFLAVWCFL”, 63700.
Under “GFSRTAGAKSMPASRRTSASGDDDELAGHLQGLSLAGERSNRVSPAPAPVSAS” stands 44900.
Under “GFSVDPIVSLLYRAFTMMDVTFLRTVCFDIFSRYSTAELALVNQAFTAKHKKK” stands 40700; under “GFTFYFSLHFHIFHIFHYLWEPRATILFFLTSLLFFFFTPIFTFMHCIIFIGF”, 78900; under “GFTTLSMMHATVFHGDLISFKHFLELYRHSPLLILYICGYKNTEYYAARYFYS”, 34700.
As for “GFVDVTEQVCGWPMGPWSDDEKLKELGRWNLRNWEEGMEGWILMLYTRFLGWS”, the “transcriptional activation domain activity” value turned out to be 69700.
Under “GFVGENSASASVVEVLLRTGGFSTRSLRRRLLETFQLVLEVTHSLAFIKPGGK” stands 53300.
Under “GFVLPLFFNSLCPMIPIGFSFVFHFFSHFSFLPIVCFPFPFHLFDTLGSFFFR” stands 33100; under “GFVVQQLQKLFLTCIALKLVQRVNSLNKLFKTAVGSLPVILSLLGLWIILFLF”, 47200.
As for “GGAAAKESESKSSASTSKASISKGKDEQGAGASGGNKKGGGGKATTKRGRKKG”, the figure is 29400; as for “GGAAGARKGAKRPKRAVGGAAAAAGGKKSADSDDEKPKEKSAPSGGGSKVGGI”, 36600.
Consider “GGAAKPAFGAAPSGGLFGSTANTTANTGGFGGGFGSGTTAASTSSPFGGGAAS”, for which the “transcriptional activation domain activity” value worked out at 27700.
With “GGAAPAAAPADNRPPEERYAEQLRQLNDMGFFDFDRNVAALRRSGGSVQGAIE”, the “transcriptional activation domain activity” value was found to be 44000.
